The record followed here is PMC10558455, “Rab41-mediated ESCRT machinery repairs membrane rupture by a bacterial toxin in xenophagy” (Nature Communications, 2023).

In this experiment the target is T1, streptolysin O (SLO) secreted by Group A Streptococcus strain JRS4 (Streptococcus pyogenes JRS4 (serotype …, UniProt Q5XE40)).
T1 construct: also called GAS pore-forming toxin; bacterial cytolysin
Nature of the experiment: co-IP. Conditions: partners not purified.

B1: STAND-HS1 (anti-SLO intrabody) (scFv, V domains shown)
VH: EVQLQESGPSLVKPSQTLSLTCSVTGDSITSGYWNWIRKFPGNKFEYMGYISYGDSTYYNPSLKSRISITRDTSKNQYYLQLNSVTTEDTATYYCARLGNDYNWYFDVWGAGTTVTVSS
VL: DIQMNQSPSSLSASLGDTITITCHASQNINVWLSWYQQKPGNIPKLLIFKASNLYTGVPSRFSGSGSGTGFTLTISSLQPEDIATYYCQQGQTYPLTFGGGTKL
notes: also called anti-SLO scFv; anti-SLO intracellular antibody; not shown: 3xFLAG, N-terminal, kept
For the molecule B1, the binding result is on record as “binds”.
